Numbering of substitutions follows the chain as printed.
B1: M145-D11 (Fab, V domains shown)
VH: EVQLLESGGGLVQPGGSLRLSCAASGFTFSHYRMSWVRQAPGKGLEWVSSIYPSGGRTVYADSVKGRFTISRDNSKNTLYLQMNSLRAEDTAVYYCAKDKFEWRLLFRGIGNDAFDIWGQGTMVTVSS
VL: QSVLTQPPSVSVSPGQTASITCSGDKLGDKYTSWYQQRPGQSPVLVIYQDIKRPSGIPERFSGSNSGNTATLTISGTQAMDEADYYCQAWDSPNARVFGSGTKVTVL
notes: also called 559A-M145-D11 (sFab); 559A-M0145-D11
B2: M28-D02 (Fab, V domains shown)
VH: EVQLLESGGGLVQPGGSLRLSCAASGFTFSWYPMQWVRQAPGKGLEWVSYIYPSGGGTDYADSVKGRFTISRDNSKNTLYLQMNSLRAEDTATYYCATSSGWLGDAFDIWGQGTMVTVSS
VL: DIQMTQSPSSLSASEGDMVTITCRTSRRIGTYLNWYQQKPGKAPKLLIYGASSLQSGVPSRFSGSGSGTDFTLTVSSLQPEDVGTYYCQQSFSSPWTFGPGTKVEIK
B3: M29-D09 (Fab, V domains shown)
VH: EVQLLESGGGLVQPGGSLRLSCAASGFTFSWYTMVWVRQAPGKGLEWVSYIYPSGGATFYADSVKGRFTISRDNSKNTLYLQMNSLRAEDTAVYYCAMGSYDYIWGFYSDHWGQGTLVTVSS
VL: QSALTQPPTVSVSPGQTARITCSGNKLGDKYVAWYQQKPGQSPMLVIYQDTKRPSRVSERFSGSNSANTATLSISGTQALDEADYYCQAWDSSIVIFGGGTRLTVL
notes: also called 559A-M29-D09 (sFab); 559A-M0029-D09
B4: M6-D09 (Fab, V domains shown)
VH: EVQLLESGGGLVQPGGSLRLSCAASGFTFSFYYMVWVRQAPGKGLEWVSVIYPSGGITVYADSVKGRFTISRDNSKNTLYLQMNSLRAEDTAVYYCARDKWAVMPPYYYYAMDVWGQGTTVTVSS
VL: DIQMTQSPSSLSASVGDRVTITCRASQSIRNYLNWYQQKPGKAPNLLIYAASTLQSGVPARFSGSGSGTDFTLTISSLQPEDFATYYCQQLSGYPHTFGQGTKLEIK
notes: also called M06-D09; 559A-M06-D09
B5: X101-A01 (antibody, V domains shown)
VH: EVQLLESGGGLVQPGGSLRLSCAASGFTFSHYLMTWVRQAPGKGLEWVSYISPSGGHTIYADSVKGRFTISRDNSKNTLYLQMNSLRAEDTAVYYCARVARGIAARSRTSYFDYWGQGTLVTVSS
VL: EIVLTQSPGTLSLSPGERATLSCRTSQFVNSNYLAWYQQKPGQAPRLLIYGASSRATGIPDRFSGSGSGTDFTLTISRLEPEDFAVYYCQQSSRTPWTFGQGTKVEIK
notes: also called 559A-X0101-A01
B6: X115-B07 (antibody, V domains shown)
VH: B5 VH with R98M, A100G, R101Q, A104R, A105G, D113A, Y114Q
VL: B5 VL
notes: also called 559A-X115-B07; 559A-X0115-B07
B7: M35-G04 (Fab, V domains shown)
VH: EVQLLESGGGLVQPGGSLRLSCAASGFTFSYYHMSWVRQAPGKGLEWVSVISPSGGSTKYADSVKGRFTISRDNSKNTLYLQMNSLRAEDTAVYYCARGGSSDYAWGSYRRPYYFDYWGQGTLVTVSS
VL: DIQMTQSPATLSLSPGERATLSCRASQSVSSYLAWYQQKPGQAPRLLIYDASNRATGIPARFSGSGSGTDFTLTISSLEPEDFAVYYCQQRSNWPRGFTFGPGTKVDIK
notes: also called 559A-M35-G04; 559A-M0035-G04
B8: X115-F02 (Fab, V domains shown)
VH: EVQLLESGGGLVQPGGSLRLSCAASGFTFSHYIMMWVRQAPGKGLEWVSGIYSSGGITVYADSVKGRFTISRDNSKNTLYLQMNSLRAEDTAVYYCAYRRIGVPRRDEFDIWGQGTMVTVSS
VL: DIQMTQSPSTLSASVGDRVTITCRASQSISSWLAWYQQKPGKAPKLLIYKASTLESGVPSRFSGSGSGTEFTLTISSLQPDDFATYYCQQYNTYWTFGQGTKVEIK
notes: also called 559A-X115-F02; 559A-X0115-F02
B9: X115-G04 (antibody, V domains shown)
VH: B8 VH with I101T
VL: B8 VL
notes: also called 559A-X115-G04; 559A-X0115-G04
B10: X115-A03 (antibody, V domains shown)
VH: B8 VH with Y98W, E108S, I111M
VL: B8 VL
notes: also called 559A-X115-A03; 559A-X0115-A03
B11: X115-D01 (antibody, V domains shown)
VH: EVQLLESGGGLVQPGGSLRLSCAASGFTFSIYSMHWVRQAPGKGLEWVSSIYPSRGMTWYADSVKGRFTISRDNSKNTLYLQMNSLRAEDTAVYYCAYRRTGIPRRDAFDIWGQGTMVTVSS
VL: B8 VL
notes: also called 559A-X115-D01; 559A-X0115-D01

Columns and labels:
[1] = biological target: T1, pKal catalytic domain Mutant 1 (human, UniProt P03952 391-638, limits assumed); assay: Ki,app, enzyme inhibition
T1 construct: catalytic domain with His tag from Pichia pastoris
T1 sequence (P03952 other isoform, or with tags, fused parts or gaps mutant limits assumed): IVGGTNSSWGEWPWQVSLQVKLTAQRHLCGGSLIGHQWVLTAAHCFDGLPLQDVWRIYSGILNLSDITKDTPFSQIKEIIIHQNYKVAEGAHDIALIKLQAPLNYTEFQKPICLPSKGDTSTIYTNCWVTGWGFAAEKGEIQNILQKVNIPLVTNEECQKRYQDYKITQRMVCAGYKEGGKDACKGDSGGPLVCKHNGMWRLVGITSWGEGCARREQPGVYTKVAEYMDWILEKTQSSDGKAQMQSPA

[2] = biological target: T2, pKal catalytic domain Mutant 2 (human, UniProt P03952 391-638, limits assumed); assay: Ki,app, enzyme inhibition
T2 construct: catalytic domain with His tag from Pichia pastoris
T2 sequence (P03952 other isoform, or with tags, fused parts or gaps mutant limits assumed): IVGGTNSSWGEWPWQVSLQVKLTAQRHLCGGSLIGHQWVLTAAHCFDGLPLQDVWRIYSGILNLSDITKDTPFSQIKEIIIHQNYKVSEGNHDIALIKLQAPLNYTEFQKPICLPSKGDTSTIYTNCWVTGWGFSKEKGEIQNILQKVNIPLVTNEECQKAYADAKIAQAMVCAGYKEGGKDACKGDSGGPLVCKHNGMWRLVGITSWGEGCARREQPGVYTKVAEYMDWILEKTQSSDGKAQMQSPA

[3] = biological target: pKal catalytic domain Mutant 4 (human, UniProt P03952 391-638); assay: Ki,app, enzyme inhibition
pKal catalytic domain Mutant 4, sequence (P03952 other isoform, or with tags, fused parts or gaps mutant): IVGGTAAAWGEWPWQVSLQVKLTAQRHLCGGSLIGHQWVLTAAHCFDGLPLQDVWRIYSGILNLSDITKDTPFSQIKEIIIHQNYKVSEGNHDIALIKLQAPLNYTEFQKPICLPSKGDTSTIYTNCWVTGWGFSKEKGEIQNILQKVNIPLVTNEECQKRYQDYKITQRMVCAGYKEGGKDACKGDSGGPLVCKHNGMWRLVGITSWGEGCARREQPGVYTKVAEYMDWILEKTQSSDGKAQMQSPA

[4] = biological target: T3, human plasma kallikrein (active form) (human, UniProt P03952 20-390; P03952 391-638); assay: ELISA, biotinylated pKal / streptavidin background
T3 construct: two disulfide linked chains; biotinylated in the ELISA; also called pKal; hpKal
T3 sequence (P03952 20-390, chain 1 of 2): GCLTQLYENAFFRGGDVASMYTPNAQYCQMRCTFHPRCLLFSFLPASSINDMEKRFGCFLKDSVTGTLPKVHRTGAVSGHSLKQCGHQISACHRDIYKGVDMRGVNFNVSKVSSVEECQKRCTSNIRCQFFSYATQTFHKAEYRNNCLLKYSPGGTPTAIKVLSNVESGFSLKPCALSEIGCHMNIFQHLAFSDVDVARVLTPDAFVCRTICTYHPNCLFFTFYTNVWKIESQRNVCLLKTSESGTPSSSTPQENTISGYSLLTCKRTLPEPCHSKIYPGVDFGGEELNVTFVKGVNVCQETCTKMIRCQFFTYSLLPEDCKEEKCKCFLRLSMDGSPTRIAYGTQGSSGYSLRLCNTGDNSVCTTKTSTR
T3 sequence (P03952 391-638, chain 2 of 2): as the sequence (P03952 other isoform, or with tags, fused parts or gaps mutant) above, with A6N, A7S, A8S counted along it
From the text: Abbreviations used: "T/B" is the ELISA signal obtained using of the "target" (biotinylated plasma kallikrein) divided by the ELISA signal of the "background" (streptavidin); both of which were coated on microtiter plates. "nd" is not determined. The symbol "q" refers to the amber suppressible stop codon (TAG), which is translated as glutamine (Q) in strains of E. coli such as the TG1 cells that were used to express the Fab fragments.

Row | Binder | Ki [1] | Ki [2] | Ki [3] | ELISA (T/B) [4]
1 | B1 | 0.23 nM | 0.1 nM | 0.21 nM | 
2 | B2 |  |  |  | 3.7 T/B
3 | B3 | 0.27 nM | 0.34 nM | 0.39 nM | 
4 | B4 | 3.4 nM | 13.5 nM | 2.9 nM | 
5 | B5 | 14 nM | 20 nM | 0.25 nM | 
6 | B6 | 4.7 nM | 47 nM | 0.14 nM | 
7 | B7 | 0.09 nM | 1.1 nM | 0.8 nM | 
8 | B8 | 0.14 nM | 5.9 nM | 0.1 nM | 
9 | B9 | 0.4 nM | 2.2 nM | 0.3 nM | 
10 | B10 | 0.23 nM | 3.7 nM | 0.13 nM | 
11 | B11 | 0.26 nM | 2.5 nM | 0.12 nM | 

— patent publication US8816055 (DYAX, dated 2014)
